Experimental data as given in paper PMC5286426, “The Calcium-Dependent Switch Helix of L-Plastin Regulates Actin Bundling” (Scientific Reports, 2017).

Target: T1, L-plastin EF construct (EF-hand headpiece domain, H5 region omitted) (human)
T1 construct: human L-plastin (LPL), EF construct: the two N-terminal EF-hand motifs (helices 1-4, residues 8-79) with the H5 region omitted; holds Cys42; 15N-labelled in the NMR experiment; immobilised by Cys42 in SPR; also called LPL-EF; EF domain of LPL; source: E. coli BL21 (DE3), purified (IMAC, His-tag cleaved with TEV protease); not shown: His-tag, N-terminal, cleaved
Assay: SPR; EF construct immobilised by its sole cysteine (Cys42) on a CM5 chip by thiol coupling; peptides injected; BIAcore X100; 10 mM Tris-HCl pH 7.5, 150 mM KCl, 1 mM CaCl2, 0.005% Tween-20; 30 uL/min, contact 1 min, 25 °C
Conditions: both partners purified

B1: CaMKI peptide (CaM-binding peptide) (peptide)
chain: AKSKWKQAFNATAVVRHMRKLQ
modifications: Limits are not given; 299-320 is the conventional 22-residue CaMKI calmodulin-binding peptide. Terminal modifications are not stated.
  Kd: 3.27 µM
